Test results published in patent US20250042956A1.

Tests used:
[1] = molecular target: AT1G22950.1 ICU11 (Arabidopsis thaliana) (UniProt Q3ED68); assay: IP-MS rep 1
[2] = molecular target: AT3G10480.3 NAC050 (Arabidopsis thaliana) (UniProt Q9SQX9); assay: IP-MS rep 1
[3] = molecular target: AT3G10490.2 NAC052 (Arabidopsis thaliana) (UniProt Q9SQY0); assay: IP-MS rep 1
[4] = molecular target: AT3G18210.1 CP2 (Arabidopsis thaliana) (UniProt P0DO23); assay: IP-MS rep 1
[5] = molecular target: AT3G20740.1 FIE (Arabidopsis thaliana) (UniProt Q9LT47); assay: IP-MS rep 1
[6] = molecular target: AT5G11530.1 EMF1 (Arabidopsis thaliana) (UniProt Q9LYD9); assay: IP-MS rep 1
[7] = molecular target: AT5G58230.1 MSI1 (Arabidopsis thaliana) (UniProt O22467); assay: IP-MS rep 1
[8] = molecular target: T1, AT5G67580.1 TRB2 (Arabidopsis thaliana) (UniProt Q9FJW5); assay: IP-MS rep 1
T1 sequence: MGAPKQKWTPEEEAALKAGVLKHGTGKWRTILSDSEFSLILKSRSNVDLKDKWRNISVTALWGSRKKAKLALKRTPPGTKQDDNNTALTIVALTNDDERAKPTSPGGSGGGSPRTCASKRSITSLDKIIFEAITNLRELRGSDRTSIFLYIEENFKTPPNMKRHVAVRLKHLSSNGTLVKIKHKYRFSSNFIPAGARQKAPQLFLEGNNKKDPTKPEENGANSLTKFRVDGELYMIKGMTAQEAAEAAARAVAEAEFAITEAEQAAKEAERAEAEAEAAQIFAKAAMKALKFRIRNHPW

[9] = molecular target: AT1G22950.1 ICU11 (Arabidopsis thaliana) (UniProt Q3ED68); assay: IP-MS rep 2
[10] = molecular target: AT3G10480.3 NAC050 (Arabidopsis thaliana) (UniProt Q9SQX9); assay: IP-MS rep 2
[11] = molecular target: AT3G10490.2 NAC052 (Arabidopsis thaliana) (UniProt Q9SQY0); assay: IP-MS rep 2
[12] = molecular target: AT3G18210.1 CP2 (Arabidopsis thaliana) (UniProt P0DO23); assay: IP-MS rep 2
[13] = molecular target: AT3G20740.1 FIE (Arabidopsis thaliana) (UniProt Q9LT47); assay: IP-MS rep 2
[14] = molecular target: AT5G11530.1 EMF1 (Arabidopsis thaliana) (UniProt Q9LYD9); assay: IP-MS rep 2
[15] = molecular target: AT5G58230.1 MSI1 (Arabidopsis thaliana) (UniProt O22467); assay: IP-MS rep 2
[16] = molecular target: T1, AT5G67580.1 TRB2 (Arabidopsis thaliana); assay: IP-MS rep 2
[17] = molecular target: AT1G22950.1 ICU11 (Arabidopsis thaliana) (UniProt Q3ED68); assay: X-link IP-MS
[18] = molecular target: AT3G10480.3 NAC050 (Arabidopsis thaliana) (UniProt Q9SQX9); assay: X-link IP-MS
[19] = molecular target: AT3G10490.2 NAC052 (Arabidopsis thaliana) (UniProt Q9SQY0); assay: X-link IP-MS
[20] = molecular target: AT3G18210.1 CP2 (Arabidopsis thaliana) (UniProt P0DO23); assay: X-link IP-MS
[21] = molecular target: AT3G20740.1 FIE (Arabidopsis thaliana) (UniProt Q9LT47); assay: X-link IP-MS
[22] = molecular target: AT5G11530.1 EMF1 (Arabidopsis thaliana) (UniProt Q9LYD9); assay: X-link IP-MS
[23] = molecular target: AT5G58230.1 MSI1 (Arabidopsis thaliana) (UniProt O22467); assay: X-link IP-MS
[24] = molecular target: T1, AT5G67580.1 TRB2 (Arabidopsis thaliana); assay: X-link IP-MS
[25] = molecular target: AT1G49950.3 TRB1 (Arabidopsis thaliana) (UniProt Q8VWK4); assay: IP-MS rep 1
[26] = molecular target: AT2G23380.1 CLF (Arabidopsis thaliana) (UniProt P93831); assay: IP-MS rep 1
[27] = molecular target: T2, AT4G02020.1 SWN (Arabidopsis thaliana) (UniProt Q9ZSM8); assay: IP-MS rep 1
T2 sequence (looked up): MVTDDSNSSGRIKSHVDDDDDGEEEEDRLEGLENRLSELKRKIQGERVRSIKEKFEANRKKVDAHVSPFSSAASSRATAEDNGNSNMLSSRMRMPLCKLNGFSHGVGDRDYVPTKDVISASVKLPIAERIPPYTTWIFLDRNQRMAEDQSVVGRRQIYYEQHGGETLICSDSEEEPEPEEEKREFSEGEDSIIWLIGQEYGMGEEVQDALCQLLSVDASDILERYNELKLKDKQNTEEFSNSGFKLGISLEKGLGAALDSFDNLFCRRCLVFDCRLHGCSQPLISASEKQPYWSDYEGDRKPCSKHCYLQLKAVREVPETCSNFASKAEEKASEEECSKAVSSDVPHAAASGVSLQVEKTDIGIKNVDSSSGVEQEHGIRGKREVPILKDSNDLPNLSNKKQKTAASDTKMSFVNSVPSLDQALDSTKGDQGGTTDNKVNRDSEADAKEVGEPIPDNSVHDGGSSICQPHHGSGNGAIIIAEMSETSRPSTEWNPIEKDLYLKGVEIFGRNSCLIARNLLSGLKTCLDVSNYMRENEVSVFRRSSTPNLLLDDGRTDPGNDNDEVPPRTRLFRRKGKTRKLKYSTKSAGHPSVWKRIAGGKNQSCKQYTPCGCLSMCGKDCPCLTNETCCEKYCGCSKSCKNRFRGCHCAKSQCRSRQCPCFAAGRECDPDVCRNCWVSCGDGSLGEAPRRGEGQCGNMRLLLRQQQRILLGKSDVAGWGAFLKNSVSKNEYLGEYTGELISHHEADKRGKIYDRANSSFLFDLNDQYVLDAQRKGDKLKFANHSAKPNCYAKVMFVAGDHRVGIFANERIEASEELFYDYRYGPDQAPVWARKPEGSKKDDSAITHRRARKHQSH

[28] = molecular target: T3, AT5G17690.1 LHP1 (Arabidopsis thaliana) (UniProt Q946J8); assay: IP-MS rep 1
T3 sequence: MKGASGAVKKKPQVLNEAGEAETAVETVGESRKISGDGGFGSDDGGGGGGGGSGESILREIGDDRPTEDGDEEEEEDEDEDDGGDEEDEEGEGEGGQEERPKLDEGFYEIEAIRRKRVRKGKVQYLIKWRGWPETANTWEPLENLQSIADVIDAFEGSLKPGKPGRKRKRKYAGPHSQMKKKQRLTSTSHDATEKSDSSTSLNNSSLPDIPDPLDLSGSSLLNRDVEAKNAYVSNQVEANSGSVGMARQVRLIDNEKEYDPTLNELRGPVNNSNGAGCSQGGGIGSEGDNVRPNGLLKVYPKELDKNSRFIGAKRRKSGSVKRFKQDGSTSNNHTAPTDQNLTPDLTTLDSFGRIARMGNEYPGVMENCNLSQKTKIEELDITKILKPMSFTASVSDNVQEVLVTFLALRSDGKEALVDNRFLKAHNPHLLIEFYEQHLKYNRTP

[29] = molecular target: AT5G51230.1 EMF2 (Arabidopsis thaliana) (UniProt Q8L6Y4); assay: IP-MS rep 1
[30] = molecular target: AT1G49950.3 TRB1 (Arabidopsis thaliana) (UniProt Q8VWK4); assay: IP-MS rep 2
[31] = molecular target: AT2G23380.1 CLF (Arabidopsis thaliana) (UniProt P93831); assay: IP-MS rep 2
[32] = molecular target: T2, AT4G02020.1 SWN (Arabidopsis thaliana); assay: IP-MS rep 2
[33] = molecular target: T3, AT5G17690.1 LHP1 (Arabidopsis thaliana); assay: IP-MS rep 2
[34] = molecular target: AT5G51230.1 EMF2 (Arabidopsis thaliana) (UniProt Q8L6Y4); assay: IP-MS rep 2
[35] = molecular target: AT1G49950.3 TRB1 (Arabidopsis thaliana) (UniProt Q8VWK4); assay: X-link IP-MS
[36] = molecular target: AT2G23380.1 CLF (Arabidopsis thaliana) (UniProt P93831); assay: X-link IP-MS
[37] = molecular target: T2, AT4G02020.1 SWN (Arabidopsis thaliana); assay: X-link IP-MS
[38] = molecular target: T3, AT5G17690.1 LHP1 (Arabidopsis thaliana); assay: X-link IP-MS
[39] = molecular target: AT5G51230.1 EMF2 (Arabidopsis thaliana) (UniProt Q8L6Y4); assay: X-link IP-MS
[40] = molecular target: AT4G20400.1 JMJ14 (Arabidopsis thaliana) (UniProt Q8GUI6); assay: IP-MS rep 1
[41] = molecular target: AT4G38130.1 HDA19 (Arabidopsis thaliana) (UniProt O22446); assay: IP-MS rep 1
[42] = molecular target: AT5G63110.1 HDA6 (Arabidopsis thaliana) (UniProt Q9FML2); assay: IP-MS rep 1
[43] = molecular target: AT4G20400.1 JMJ14 (Arabidopsis thaliana) (UniProt Q8GUI6); assay: IP-MS rep 2
[44] = molecular target: AT4G38130.1 HDA19 (Arabidopsis thaliana) (UniProt O22446); assay: IP-MS rep 2
[45] = molecular target: AT5G63110.1 HDA6 (Arabidopsis thaliana) (UniProt Q9FML2); assay: IP-MS rep 2

Sequence of AT3G10490.2 NAC052 (Arabidopsis thaliana) (Q9SQY0 whole entry): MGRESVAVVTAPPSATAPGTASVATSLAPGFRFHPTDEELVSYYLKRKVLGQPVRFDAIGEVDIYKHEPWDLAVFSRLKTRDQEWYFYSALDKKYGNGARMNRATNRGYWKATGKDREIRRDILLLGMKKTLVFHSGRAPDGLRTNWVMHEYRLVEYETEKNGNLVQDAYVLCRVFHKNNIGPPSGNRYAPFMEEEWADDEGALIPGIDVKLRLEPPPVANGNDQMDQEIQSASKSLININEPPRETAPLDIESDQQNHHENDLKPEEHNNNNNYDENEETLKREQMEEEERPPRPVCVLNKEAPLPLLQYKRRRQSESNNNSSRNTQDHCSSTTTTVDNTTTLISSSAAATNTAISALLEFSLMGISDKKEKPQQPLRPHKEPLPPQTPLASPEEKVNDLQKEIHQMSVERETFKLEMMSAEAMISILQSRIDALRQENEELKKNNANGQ
Sequence of AT3G18210.1 CP2 (Arabidopsis thaliana) (P0DO23 whole entry): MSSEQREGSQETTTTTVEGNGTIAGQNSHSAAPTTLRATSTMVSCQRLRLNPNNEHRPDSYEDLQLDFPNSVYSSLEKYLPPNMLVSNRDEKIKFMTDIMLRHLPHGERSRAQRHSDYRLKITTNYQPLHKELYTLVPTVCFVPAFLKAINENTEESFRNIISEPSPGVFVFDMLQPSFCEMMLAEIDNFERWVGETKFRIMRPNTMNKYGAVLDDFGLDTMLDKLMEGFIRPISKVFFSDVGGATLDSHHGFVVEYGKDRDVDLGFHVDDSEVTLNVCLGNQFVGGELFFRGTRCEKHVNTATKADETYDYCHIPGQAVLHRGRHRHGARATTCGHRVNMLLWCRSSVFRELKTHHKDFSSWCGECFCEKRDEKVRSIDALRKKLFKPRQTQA
Sequence of AT1G22950.1 ICU11 (Arabidopsis thaliana) (Q3ED68 whole entry): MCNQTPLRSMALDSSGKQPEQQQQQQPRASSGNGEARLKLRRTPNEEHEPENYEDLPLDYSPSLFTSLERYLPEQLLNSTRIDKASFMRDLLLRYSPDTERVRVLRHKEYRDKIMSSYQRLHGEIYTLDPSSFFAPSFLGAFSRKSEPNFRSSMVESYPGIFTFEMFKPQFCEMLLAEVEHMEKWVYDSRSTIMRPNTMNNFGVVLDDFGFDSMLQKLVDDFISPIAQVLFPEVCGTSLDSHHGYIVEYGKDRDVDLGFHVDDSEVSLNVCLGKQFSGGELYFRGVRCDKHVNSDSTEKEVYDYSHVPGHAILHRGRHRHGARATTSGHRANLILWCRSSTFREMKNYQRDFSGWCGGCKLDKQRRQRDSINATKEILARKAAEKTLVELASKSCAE
Sequence of AT5G11530.1 EMF1 (Arabidopsis thaliana) (Q9LYD9 whole entry): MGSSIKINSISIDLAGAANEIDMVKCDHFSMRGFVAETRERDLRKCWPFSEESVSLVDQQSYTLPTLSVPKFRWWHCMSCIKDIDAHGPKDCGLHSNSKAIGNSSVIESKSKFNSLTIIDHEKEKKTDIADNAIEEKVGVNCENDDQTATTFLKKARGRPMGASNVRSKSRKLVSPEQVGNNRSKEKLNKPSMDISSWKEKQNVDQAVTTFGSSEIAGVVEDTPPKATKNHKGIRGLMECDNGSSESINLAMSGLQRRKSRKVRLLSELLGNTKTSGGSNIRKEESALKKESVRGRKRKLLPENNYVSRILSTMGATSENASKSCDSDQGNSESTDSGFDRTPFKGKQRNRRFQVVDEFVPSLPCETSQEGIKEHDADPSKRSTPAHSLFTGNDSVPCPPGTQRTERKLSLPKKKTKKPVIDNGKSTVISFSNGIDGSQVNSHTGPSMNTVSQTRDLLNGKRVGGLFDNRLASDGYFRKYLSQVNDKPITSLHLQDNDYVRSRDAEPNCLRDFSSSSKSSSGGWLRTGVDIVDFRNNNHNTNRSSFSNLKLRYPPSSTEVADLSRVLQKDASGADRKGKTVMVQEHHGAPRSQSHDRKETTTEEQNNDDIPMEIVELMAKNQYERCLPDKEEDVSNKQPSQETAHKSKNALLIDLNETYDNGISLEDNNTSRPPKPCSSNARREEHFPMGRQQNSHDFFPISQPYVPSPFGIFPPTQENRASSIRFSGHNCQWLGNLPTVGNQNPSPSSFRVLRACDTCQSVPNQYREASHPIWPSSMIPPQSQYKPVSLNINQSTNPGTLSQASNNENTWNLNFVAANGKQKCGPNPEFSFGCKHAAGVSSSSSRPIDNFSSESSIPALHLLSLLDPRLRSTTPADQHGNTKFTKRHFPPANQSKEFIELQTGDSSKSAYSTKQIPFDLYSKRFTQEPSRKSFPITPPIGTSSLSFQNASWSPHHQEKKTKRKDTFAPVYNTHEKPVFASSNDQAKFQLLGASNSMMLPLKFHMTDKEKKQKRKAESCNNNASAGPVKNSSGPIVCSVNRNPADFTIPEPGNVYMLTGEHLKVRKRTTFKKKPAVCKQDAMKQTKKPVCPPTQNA
Sequence of AT5G63110.1 HDA6 (Arabidopsis thaliana) (Q9FML2 whole entry): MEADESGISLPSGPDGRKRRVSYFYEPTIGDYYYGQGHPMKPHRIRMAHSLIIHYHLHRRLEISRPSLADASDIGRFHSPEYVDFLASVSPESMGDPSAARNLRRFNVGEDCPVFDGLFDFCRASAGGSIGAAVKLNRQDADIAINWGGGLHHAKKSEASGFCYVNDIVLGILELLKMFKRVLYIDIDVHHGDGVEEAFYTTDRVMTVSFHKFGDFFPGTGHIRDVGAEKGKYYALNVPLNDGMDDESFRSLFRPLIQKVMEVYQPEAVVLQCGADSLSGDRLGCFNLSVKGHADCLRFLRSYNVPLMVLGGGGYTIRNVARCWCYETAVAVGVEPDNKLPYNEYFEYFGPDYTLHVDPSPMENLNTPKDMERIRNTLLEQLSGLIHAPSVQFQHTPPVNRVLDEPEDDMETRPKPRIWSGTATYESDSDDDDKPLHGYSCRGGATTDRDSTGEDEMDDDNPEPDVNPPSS
Sequence of AT4G20400.1 JMJ14 (Arabidopsis thaliana) (Q8GUI6 whole entry): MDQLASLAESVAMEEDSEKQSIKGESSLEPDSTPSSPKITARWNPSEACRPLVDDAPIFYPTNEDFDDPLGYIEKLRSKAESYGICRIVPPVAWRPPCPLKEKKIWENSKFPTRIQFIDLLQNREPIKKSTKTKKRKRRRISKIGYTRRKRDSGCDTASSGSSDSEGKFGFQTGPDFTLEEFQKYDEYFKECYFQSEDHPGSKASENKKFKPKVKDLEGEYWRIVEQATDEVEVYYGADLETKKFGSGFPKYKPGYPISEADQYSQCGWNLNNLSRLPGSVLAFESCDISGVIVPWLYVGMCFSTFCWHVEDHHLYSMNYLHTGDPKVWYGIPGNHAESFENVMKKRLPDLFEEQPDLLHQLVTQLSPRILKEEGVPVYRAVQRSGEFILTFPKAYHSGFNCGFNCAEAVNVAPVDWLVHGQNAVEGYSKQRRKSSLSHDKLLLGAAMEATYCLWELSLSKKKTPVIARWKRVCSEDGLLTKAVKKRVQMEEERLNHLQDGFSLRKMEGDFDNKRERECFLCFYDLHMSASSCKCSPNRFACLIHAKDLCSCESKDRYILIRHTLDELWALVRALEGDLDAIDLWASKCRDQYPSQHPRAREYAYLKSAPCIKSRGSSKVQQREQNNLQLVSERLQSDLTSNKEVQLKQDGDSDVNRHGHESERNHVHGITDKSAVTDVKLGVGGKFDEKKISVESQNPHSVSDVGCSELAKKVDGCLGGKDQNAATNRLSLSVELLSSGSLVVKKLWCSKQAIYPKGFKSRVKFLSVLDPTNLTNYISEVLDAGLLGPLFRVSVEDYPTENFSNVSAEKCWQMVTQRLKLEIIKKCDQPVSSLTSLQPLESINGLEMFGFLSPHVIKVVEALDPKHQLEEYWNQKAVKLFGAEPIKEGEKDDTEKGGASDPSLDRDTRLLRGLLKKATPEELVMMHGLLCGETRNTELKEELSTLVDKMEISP
Sequence of AT5G51230.1 EMF2 (Arabidopsis thaliana) (Q8L6Y4 whole entry): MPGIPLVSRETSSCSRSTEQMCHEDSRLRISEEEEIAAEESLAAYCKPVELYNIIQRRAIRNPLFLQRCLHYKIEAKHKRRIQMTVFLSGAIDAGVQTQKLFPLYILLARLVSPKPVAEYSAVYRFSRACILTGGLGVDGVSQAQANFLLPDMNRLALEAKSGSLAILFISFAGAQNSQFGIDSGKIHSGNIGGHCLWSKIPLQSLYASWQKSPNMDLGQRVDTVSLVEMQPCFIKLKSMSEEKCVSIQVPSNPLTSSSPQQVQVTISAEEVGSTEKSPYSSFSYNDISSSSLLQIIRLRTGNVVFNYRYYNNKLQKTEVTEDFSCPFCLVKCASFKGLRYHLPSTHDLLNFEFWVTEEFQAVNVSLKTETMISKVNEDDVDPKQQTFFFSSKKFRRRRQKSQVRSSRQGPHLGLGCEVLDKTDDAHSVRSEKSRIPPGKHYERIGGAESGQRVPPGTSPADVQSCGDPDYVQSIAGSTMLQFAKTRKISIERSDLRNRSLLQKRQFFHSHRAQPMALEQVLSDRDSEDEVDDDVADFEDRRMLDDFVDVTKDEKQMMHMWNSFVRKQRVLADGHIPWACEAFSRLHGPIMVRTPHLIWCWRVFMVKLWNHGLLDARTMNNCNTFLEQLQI
Sequence of AT1G49950.3 TRB1 (Arabidopsis thaliana) (Q8VWK4 whole entry): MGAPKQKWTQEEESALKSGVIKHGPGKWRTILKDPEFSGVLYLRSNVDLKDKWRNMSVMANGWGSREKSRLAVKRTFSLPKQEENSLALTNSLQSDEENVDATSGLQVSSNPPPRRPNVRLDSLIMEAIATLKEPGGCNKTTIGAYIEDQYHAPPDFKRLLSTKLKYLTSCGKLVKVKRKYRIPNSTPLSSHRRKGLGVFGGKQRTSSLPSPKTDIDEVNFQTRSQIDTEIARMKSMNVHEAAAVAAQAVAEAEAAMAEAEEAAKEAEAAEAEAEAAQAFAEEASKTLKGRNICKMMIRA

Row | Substance | IP-MS count [1] | IP-MS count [2] | IP-MS count [3] | IP-MS count [4] | IP-MS count [5] | IP-MS count [6] | IP-MS count [7] | IP-MS count [9] | IP-MS count [10] | IP-MS count [11] | IP-MS count [12] | IP-MS count [13] | IP-MS count [14] | IP-MS count [15] | IP-MS count [17] | IP-MS count [18] | IP-MS count [19] | IP-MS count [20] | IP-MS count [27] | IP-MS count [32] | also measured
1 | FLAG-TRB1 (from UniProt Q8VWK4 1-300) | 75 | 33 | 103 | 13 | 1 | 3 | 11 | 79 | 35 | 103 | 17 | 3 | 2 | 12 | 27 | 40 | 55 | 11 | – | – | IP-MS count [8]: 0; IP-MS count [16]: 0; IP-MS count [21]: 5; IP-MS count [22]: 11; IP-MS count [23]: 12; IP-MS count [24]: 2
2 | FLAG-TRB2 (from UniProt Q9FJW5 1-299) | 53 | 1 | 11 | 4 | 30 | 55 | 26 | 50 | 1 | 22 | 5 | 28 | 56 | 21 | 33 | 39 | 55 | 17 | 11 | 12 | IP-MS count [25]: 0; IP-MS count [26]: 5; IP-MS count [28]: 15; IP-MS count [29]: 10; IP-MS count [30]: 4; IP-MS count [31]: 5; IP-MS count [33]: 15; IP-MS count [34]: 15; IP-MS count [35]: 10; IP-MS count [36]: 15; IP-MS count [21]: 35; IP-MS count [37]: 33; IP-MS count [22]: 90; IP-MS count [38]: 17; IP-MS count [39]: 27; IP-MS count [23]: 30
3 | FLAG-TRB3 (from UniProt Q9M2X3 1-295) | 79 | 5 | 24 | 38 | 34 | 81 | 37 | 73 | 4 | 28 | 31 | 41 | 83 | 35 | 37 | 39 | 59 | 12 | 16 | 24 | IP-MS count [25]: 0; IP-MS count [26]: 15; IP-MS count [28]: 15; IP-MS count [29]: 23; IP-MS count [30]: 0; IP-MS count [31]: 19; IP-MS count [33]: 19; IP-MS count [34]: 23; IP-MS count [35]: 9; IP-MS count [36]: 19; IP-MS count [21]: 34; IP-MS count [37]: 36; IP-MS count [22]: 104; IP-MS count [38]: 18; IP-MS count [39]: 29; IP-MS count [23]: 31
4 | TRBIP1 (bait of the TRBIP1 IP-MS) | 32 | – | 10 | – | 22 | 36 | 20 | 19 | – | 2 | – | 3 | 7 | 9 | – | – | – | – | 15 | 6 | IP-MS count [26]: 7; IP-MS count [40]: 7; IP-MS count [41]: 4; IP-MS count [28]: 14; IP-MS count [29]: 10; IP-MS count [42]: 7; IP-MS count [31]: 0; IP-MS count [43]: 0; IP-MS count [44]: 3; IP-MS count [33]: 8; IP-MS count [34]: 3; IP-MS count [45]: 5
5 | TRBIP2 (bait of the TRBIP2 IP-MS) | 16 | – | 4 | – | – | 4 | 3 | 4 | – | 0 | – | – | 0 | 0 | – | – | – | – | 3 | 0 | IP-MS count [40]: 3; IP-MS count [41]: 4; IP-MS count [42]: 10; IP-MS count [43]: 0; IP-MS count [44]: 1; IP-MS count [45]: 3
